The record followed here is patent US20230115257A1 (published 2023).

Substitutions are numbered along the chain they refer to.

B1: 6-C19-A (antibody, V domains shown)
VH: QIQLVQSGPELKKPGETVKISCKASGNTFTTAGMQWVQKMPGKGFKWIGWINTHSGEPKYAEDFKGRFAFSLETSASTAYLQISNLKNEDTATYFCARYGDYYYFDCWGQGTTLTVSS
VL: DIQMTQSPASLSASVGETVTITCRASGNIHNYLAWYQQKQGKSPQLLVYNAKTLADGVPSRFSGSGSGTQYSLKINSLQPEDFGSFYCQHFWTTPWSFGGGTKLEIK
B2: 10-J24-A (antibody, V domains shown)
VH: EVQLVESGGGLVKPGGSLKLSCAASGFTFSSYAMSWVRQNPAKRLEWVATISGGGGFTYYPDSVKGRFTISRDNAKNTLYLQMNSLRSEDTAMYYCARDEDGKHDYFDYWGQGTTLTVSS
VL: DIVMTQSHKFMSTSVGDRVSITCKASQDVGTAVAWYQQKPGQSPKLLIYWASTRHTGVPDRFTGSGSGTDFTLTISNVQSEDLADYFCQQYASYPLTFGGGTKLVIK
B3: 4-C22-A (antibody, V domains shown)
VH: EVQLVESGGDLVKPGGSLKLSCAASGFTFSSFGMSWVRQTPDKRLEWVATISSGGGFTYYPDSVEGRFTISRDNAKNTLYLQMSSLKSEDTAMYYCARRLYDYDWFAYWGQGTLVTVSA
VL: B2 VL with F10I, G30V, Q38K, Y49H, A92S, G100A, V105E, I106L
B4: 4-L4-A (antibody, V domains shown)
VH: QAYLQQSGAELVRPGASVKMSCKASGYTFTSYTVHWVKQTPRQGLEWIGGIYPGNVDTSYNQNFKGKATLTVDKSSSTAYMQLSSLTSEDSAVYFCARDGYYAMDYWGQGTSVTVSS
VL: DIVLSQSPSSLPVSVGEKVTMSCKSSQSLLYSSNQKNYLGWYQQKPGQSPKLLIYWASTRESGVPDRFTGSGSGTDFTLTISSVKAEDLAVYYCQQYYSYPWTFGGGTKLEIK
B5: 4-N22-A (antibody, V domains shown)
VH: QVQLQQPGTELVKPGASVKLSCKASGYTFTNYWMYWVKQRPGQGLDWIGNINPSNGGTNYNEKFKSKATLTVDKSSSTAYMQLSSLTSEDSAVYYCARETGNYWGQGTTLTVSS
VL: DILMTQSPSSMSVSLGDTVSISCHASQGISSNIGWLQQKPGKSFKGLIYHGTNLEDGVPSRFSGSGSGADYSLTISSLESEDFADYYCVQYAQFPYTFGGGTKLEIK
B6: 4-M3-A (antibody, V domains shown)
VH: EVQLQQSGPELVKPGDSVKISCKASGYSFTGYFMNWVMQSHGKSLEWIGRINPNNGETFYNQKFKGKATLTVDKSSDTAHMELRSLTSEDSAVYYCARGGTGTGWGQGTTLTVSS
VL: B5 VL with S22T, H50Y, F83L, V89I
B7: 1-L10-A (antibody, V domains shown)
VH: EVKLEESGGGLVQPGGSMKLSCVASGFTFNNYWMNWVRQSPEKGLEWVAQMRLKSDNYATHYAESVKGRFTISRDDSKSSVYLQMNNLRAEDTGIYYCIEGYWTYWGQGTLVTVSA
VL: QIVLTQSPAIMSASLGERVTMTCTASSSVSSSYLHWYQQKPGSSPKLWIYSTSNLASGVPARFSGNGSGTSYSLTISSMEAEDAATYYCLQYHRSPPYTFGGGTKLEIK
B8: 6-O12-A (antibody, V domains shown)
VH: QVQLQQPGTELVKPGASVKLSCKASGYTFTSYWMHWVKQRPGQGLEWIGNINPSNGGTNYNEKFRSKATLTVDKSSSTAYMQLSSLTSEDSAVYYCARLGWFLPLGSWGQGTTLTVSS
VL: QIVLTQSPAIMSASLGEVITLTCSASSSVSYMHWYQQKSGTSPKLLIYSTSNLASGVPSRFSGSGSGTFYSLTISSVEAEDAADYYCHQWSGYMYTFGGGTKLEIK
B9: 8-H5-A (antibody, V domains shown)
VH: QVTLKESGPGILQSSQTLSLTCSLSGFSLSTSGMGVSWVRQPSGKGLEWLAHIYWDDDKRYTPSLKSRLTISTDSSRKQVFLKITSVDTADTATYYCARRDLHDYDGWFAYWGQGTLVTVSA
VL: DIVMTQSQKFMSTAVGDRVSVTCKASQNVGTNVAWYQQKPGQSPKALIYSASFRYSGVPDRFSGSGSGTDFTLTISNVQSEDLAEYFCQQYNSYPLTFGSGTKLEIK
B10: 2-H7-A (antibody, V domains shown)
VH: QAYLQQSGAELVRPGASVKMSCKASGYTFTGYTMHWVKQTPRQGLEWIGAIYPENGDTSYNQKFKGKATLTVDKSSSTAYMQLSSLTSEDSAVYFCARDGYDVLYGMDYWGQGTSVTVSS
VL: DIVLTQSPASLAVSLGQRATISCRASKSVSTSGYSYMHWYQQKPGQPPKLLIYLASNLESGVPARFSGSGSGTDFTLNIHPVEEEDAATYYCQHSRELPWTFGGGTKLDIK
B11: 2-G20-A (antibody, V domains shown)
VH: EVQLQQSGPELVKPGASVKMSCKASGYTFPSYVLHWVKQKPGQGLEWIGYIYPYNDGTNYNEKFKGKATLTSDKSSSTAYMELSSLTSEDSAVYYCARGDYGDSAWFPYWGQGTLVTVSA
VL: B10 VL with E59K, S69G, H94L, D109E
B12: 9-L13-A (antibody, V domains shown)
VH: QVQLKESGPGLVAPSQSLSITCTVSGFSLTSYAISWVRQPPGKGLEWLGLIWTGGGTNYNSALKSRLSISKDNSKSQIFLKMNSLQTDDTARYYCARGPPLIYYGDLYYFDYWGQGTTLTVSS
VL: DIQMTQSPSSLSASLGGKVTITCKASQDINKYIAWYQHKPGKGPRLLIHYTSTLQPGIPSRFSGSGSGRDYSFSISNLEPEDIATYYCLQYDNLWTFGGGTKLEIK
B13: 2-O12-A (antibody, V domains shown)
VH: EVQLQQSGPELVKPGASVKISCKASGYTFTDYYMNWVKQSHGKSLEWIGDINSNNGGTTYDQKFKGKATLTVDRSSSTAYMELRSLTSEDSAVYYCARRGDGHFGGFTYWGQGTLVTVSA
VL: not shown

The first experiment concerns the target T1, SARS-CoV-2 P.1 spike protein (SARS-CoV-2 P.1 (Gamma), UniProt P0DTC2 13-1213). The experiment can be described thus: ELISA.
In general, EC50 refers to the concentration giving half of the maximal effect. A high value points to a less potent agent. In the case of B1, the EC50 was 0.62 nM. This lies in the sub-nanomolar range.
As for B2, the response was half-maximal at 16.1 nM (EC50).
The same measure, in the same setting: under B3 stands 1.44 nM.

The target in another experiment is T1, SARS-CoV-2 P.1 spike protein. The experiment can be described thus: ELISA. The source holds these as a separate data set. (In an ELISA, binding on a coated surface is turned into a signal by an enzyme label.)
Usually IC50 stands for the concentration that inhibits the measured activity by half. High values mean lower potency, low ones higher potency. Molecule B4 yielded an IC50 of 28.2 nM.
Same read-out and setting: under B5 stands 17.2 nM; under B6, 13.5 nM; under B7, 11.5 nM.
Still for that read-out and setting: with B8 the figure was 8.01 nM; with B9, 30.5 nM; with B10, 35.6 nM.
On the same count and under the same terms, with B11 the figure was 18.9 nM.

The target of a further experiment is SARS-CoV-2 B.1.1.7 spike protein (SARS-CoV-2 B.1.1.7 (Alpha), UniProt P0DTC2 13-1213). The experiment can be described thus: ELISA.
B4 showed an IC50 of 31.6 nM.
Molecule B5 had an IC50 of 1.51 nM. This IC50 lies about 21-fold lower than the previous one.
Still for that read-out and setting: under B6 stands 4.98 nM.
Still for that read-out and setting: with B7 the figure was 7.82 nM.
On the same count and under the same terms, with B8 the figure was 7.05 nM.
B9 showed an IC50 of 15.4 nM.
Same read-out and setting: with B10 the figure was 9.88 nM; with B11, 19.2 nM; with B12, 65.3 nM.
The molecule B13 registered an IC50 of 87.6 nM. The IC50 values of the last two molecules are within 1.5-fold of each other.
